51 substances from patent US20260008817A1, “CYCLIC PEPTIDE OR SALT THEREOF, AND USES THEREOF” (FUJIFILM Corporation, priority 2023, published 2026) can be followed below.

Positions of bridges follow the written chain, without caps; N, C: chain ends. No end group written: not given here. COCH2 = acetyl group that carries the bridge

In the assay the target is T1, Recombinant Human FGFR1 alpha (IIIc) Fc Chimera Protein (Homo sapiens, UniProt P11362).
T1 construct: purchased R&D systems 658-FR-050
T1 sequence (P11362 with tags, fused parts or gaps limits assumed): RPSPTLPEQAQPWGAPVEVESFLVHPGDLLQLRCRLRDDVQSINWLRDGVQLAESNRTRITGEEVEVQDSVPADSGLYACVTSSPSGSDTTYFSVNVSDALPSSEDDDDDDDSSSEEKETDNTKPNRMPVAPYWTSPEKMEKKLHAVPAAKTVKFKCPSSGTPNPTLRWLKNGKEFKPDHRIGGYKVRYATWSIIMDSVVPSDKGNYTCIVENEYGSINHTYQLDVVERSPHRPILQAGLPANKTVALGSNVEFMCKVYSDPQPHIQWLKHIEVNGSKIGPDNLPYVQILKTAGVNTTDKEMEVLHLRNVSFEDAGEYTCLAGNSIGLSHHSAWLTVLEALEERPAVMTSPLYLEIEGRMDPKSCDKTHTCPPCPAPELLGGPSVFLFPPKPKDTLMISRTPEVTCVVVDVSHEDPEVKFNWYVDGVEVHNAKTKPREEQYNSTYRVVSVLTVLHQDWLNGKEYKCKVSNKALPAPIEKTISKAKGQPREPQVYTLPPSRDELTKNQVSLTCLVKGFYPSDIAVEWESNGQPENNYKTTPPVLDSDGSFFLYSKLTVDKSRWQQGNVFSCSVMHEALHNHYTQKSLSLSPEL
Kind of assay: ELISA binding affinity of enzymatically synthesized peptide to FGFR. Conditions: ELISA luminescence signal at 10 nmol/L peptide, SEQ ID NO: 239 standardized to 1; enzyme synthesis product. The procedure, abridged: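 Cell-free PUREfrex-translated cyclic peptides (Myc/HiBiT-tagged, quantified by HiBiT luminescence) bound 3 h at room temperature to immobilized FGFR1α(IIIc)-Fc, detected with anti-Myc and chemiluminescence. FGFR-specific signal at 10 nmol/L normalized to a reference cyclic peptide and graded A–D.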
As for “130 (ICVYTFDAHHHSLHAALTKI; Description of Artificial Sequence: Cyclic peptide) [compound 130]”, the “Evaluation result of binding affinity to FGFR” value (“Evaluation result” below) is “C (0.1 or more and less than 0.5)”.
Under “131 (ICVYTFDAHAASLHAALTKI; Description of Artificial Sequence: Cyclic peptide) [compound 131]” stands “A (0.7 or more)”; under “132 (ICVYTFDAHAGSLHAALTKI; Description of Artificial Sequence: Cyclic peptide) [compound 132]”, “A (0.7 or more)”.
“133 (ICVYTFDAHAPSLHAALTKI; Description of Artificial Sequence: Cyclic peptide) [compound 133]”: the “Evaluation result” value is reported as “A (0.7 or more)”.
Under “134 (ICVYTFDAHALSLHAALTKI; Description of Artificial Sequence: Cyclic peptide) [compound 134]” stands “A (0.7 or more)”; under “135 (ICVYTFDAHAISLHAALTKI; Description of Artificial Sequence: Cyclic peptide) [compound 135]”, “B (0.5 or more and less than 0.7)”.
Under “136 (ICVYTFDAHAVSLHAALTKI; Description of Artificial Sequence: Cyclic peptide) [compound 136]” stands “A (0.7 or more)”; under “137 (ICVYTFDAHAFSLHAALTKI; Description of Artificial Sequence: Cyclic peptide) [compound 137]”, “C (0.1 or more and less than 0.5)”.
Under “138 (ICVYTFDAHAYSLHAALTKI; Description of Artificial Sequence: Cyclic peptide) [compound 138]” stands “C (0.1 or more and less than 0.5)”.
Take “139 (ICVYTFDAHAWSLHAALTKI; Description of Artificial Sequence: Cyclic peptide) [compound 139]”: the “Evaluation result” value was “C (0.1 or more and less than 0.5)”.
Turning to “140 (ICVYTFDAHANSLHAALTK(COCH2)I; thioether 2-19 (inferred)) [compound 140]”, the “Evaluation result” value was “A (0.7 or more)”.
With “141 (ICVYTFDAHAQSLHAALTK(COCH2)I; thioether 2-19 (inferred)) [compound 141]”, the “Evaluation result” value was “A (0.7 or more)”.
Under “142 (ICVYTFDAHASSLHAALTK(COCH2)I; thioether 2-19 (inferred)) [compound 142]” stands “A (0.7 or more)”; under “143 (ICVYTFDAHATSLHAALTK(COCH2)I; thioether 2-19 (inferred)) [compound 143]”, “A (0.7 or more)”; under “144 (ICVYTFDAHADSLHAALTK(COCH2)I; thioether 2-19 (inferred)) [compound 144]”, “A (0.7 or more)”.
For “145 (ICVYTFDAHAESLHAALTK(COCH2)I; thioether 2-19 (inferred)) [compound 145]”, the “Evaluation result” value was “A (0.7 or more)”.
Take “146 (ICVYTFDAHARSLHAALTK(COCH2)I; thioether 2-19 (inferred)) [compound 146]”: the “Evaluation result” value is “A (0.7 or more)”.
Take “147 (ICVYTFDAHAHALHAALTK(COCH2)I; thioether 2-19 (inferred)) [compound 147]”: the “Evaluation result” value is “B (0.5 or more and less than 0.7)”.
Consider “148 (ICVYTFDAHAHGLHAALTK(COCH2)I; thioether 2-19 (inferred)) [compound 148]”, for which the “Evaluation result” value is “C (0.1 or more and less than 0.5)”.
Under “149 (ICVYTFDAHAHLLHAALTK(COCH2)I; thioether 2-19 (inferred)) [compound 149]” stands “C (0.1 or more and less than 0.5)”; under “150 (ICVYTFDAHAHILHAALTK(COCH2)I; thioether 2-19 (inferred)) [compound 150]”, “C (0.1 or more and less than 0.5)”.
Under “151 (ICVYTFDAHAHVLHAALTK(COCH2)I; thioether 2-19 (inferred)) [compound 151]” stands “C (0.1 or more and less than 0.5)”; under “152 (ICVYTFDAHAHFLHAALTK(COCH2)I; thioether 2-19 (inferred)) [compound 152]”, “C (0.1 or more and less than 0.5)”.
Under “153 (ICVYTFDAHAHYLHAALTK(COCH2)I; thioether 2-19 (inferred)) [compound 153]” stands “C (0.1 or more and less than 0.5)”; under “154 (ICVYTFDAHAHWLHAALTK(COCH2)I; thioether 2-19 (inferred)) [compound 154]”, “C (0.1 or more and less than 0.5)”.
As to “155 (ICVYTFDAHAHNLHAALTK(COCH2)I; thioether 2-19 (inferred)) [compound 155]”, the “Evaluation result” value was “A (0.7 or more)”.
Turning to “156 (ICVYTFDAHAHQLHAALTK(COCH2)I; thioether 2-19 (inferred)) [compound 156]”, the “Evaluation result” value is “A (0.7 or more)”.
As for “157 (ICVYTFDAHAHTLHAALTK(COCH2)I; thioether 2-19 (inferred)) [compound 157]”, the “Evaluation result” value is given as “A (0.7 or more)”.
Under “158 (ICVYTFDAHAHDLHAALTK(COCH2)I; thioether 2-19 (inferred)) [compound 158]” stands “A (0.7 or more)”.
Under “159 (ICVYTFDAHAHELHAALTK(COCH2)I; thioether 2-19 (inferred)) [compound 159]” stands “A (0.7 or more)”.
Under “160 (ICVYTFDAHAHRLHAALTK(COCH2)I; thioether 2-19 (inferred)) [compound 160]” stands “C (0.1 or more and less than 0.5)”; under “161 (ICVYTFDAHAHHLHAALTK(COCH2)I; thioether 2-19 (inferred)) [compound 161]”, “C (0.1 or more and less than 0.5)”; under “162 (ICVYTFDAHAHSAHAALTK(COCH2)I; thioether 2-19 (inferred)) [compound 162]”, “A (0.7 or more)”.
With “163 (ICVYTFDAHAHSGHAALTK(COCH2)I; thioether 2-19 (inferred)) [compound 163]”, the “Evaluation result” value is “C (0.1 or more and less than 0.5)”.
Under “164 (ICVYTFDAHAHSPHAALTK(COCH2)I; thioether 2-19 (inferred)) [compound 164]” stands “C (0.1 or more and less than 0.5)”; under “165 (ICVYTFDAHAHSIHAALTK(COCH2)I; thioether 2-19 (inferred)) [compound 165]”, “A (0.7 or more)”.
Under “166 (ICVYTFDAHAHSVHAALTK(COCH2)I; thioether 2-19 (inferred)) [compound 166]” stands “A (0.7 or more)”; under “167 (ICVYTFDAHAHSFHAALTK(COCH2)I; thioether 2-19 (inferred)) [compound 167]”, “A (0.7 or more)”; under “168 (ICVYTFDAHAHSYHAALTK(COCH2)I; thioether 2-19 (inferred)) [compound 168]”, “A (0.7 or more)”.
Turning to “169 (ICVYTFDAHAHSWHAALTK(COCH2)I; thioether 2-19 (inferred)) [compound 169]”, the “Evaluation result” value is “C (0.1 or more and less than 0.5)”.
Under “170 (ICVYTFDAHAHSQHAALTK(COCH2)I; thioether 2-19 (inferred)) [compound 170]” stands “C (0.1 or more and less than 0.5)”.
In the case of “171 (ICVYTFDAHAHSSHAALTK(COCH2)I; thioether 2-19 (inferred)) [compound 171]”, the “Evaluation result” value was “B (0.5 or more and less than 0.7)”.
Under “172 (ICVYTFDAHAHSTHAALTK(COCH2)I; thioether 2-19 (inferred)) [compound 172]” stands “B (0.5 or more and less than 0.7)”; under “173 (ICVYTFDAHAHSEHAALTK(COCH2)I; thioether 2-19 (inferred)) [compound 173]”, “C (0.1 or more and less than 0.5)”.
On to “174 (ICVYTFDAHAHSRHAALTK(COCH2)I; thioether 2-19 (inferred)) [compound 174]”, for which the “Evaluation result” value is “C (0.1 or more and less than 0.5)”.
Under “175 (ICVYTFDAHAHSHHAALTK(COCH2)I; thioether 2-19 (inferred)) [compound 175]” stands “B (0.5 or more and less than 0.7)”; under “176 (ICVYTFDAHAHSLAAALTK(COCH2)I; thioether 2-19 (inferred)) [compound 176]”, “A (0.7 or more)”; under “177 (ICVYTFDAHAHSLGAALTK(COCH2)I; thioether 2-19 (inferred)) [compound 177]”, “A (0.7 or more)”.
Under “178 (ICVYTFDAHAHSLPAALTK(COCH2)I; thioether 2-19 (inferred)) [compound 178]” stands “A (0.7 or more)”; under “179 (ICVYTFDAHAHSLLAALTK(COCH2)I; thioether 2-19 (inferred)) [compound 179]”, “B (0.5 or more and less than 0.7)”.
Under “180 (ICVYTFDAHAHSLIAALTK(COCH2)I; thioether 2-19 (inferred)) [compound 180]” stands “B (0.5 or more and less than 0.7)”.
